Results published in article PMC9477564 (Nature structural & molecular biology, 2021).

Target: the molecule itself
Experiment: SEC-MALS

B1: Get3(D68N) (enzyme)
chain: not shown
- stoichiometry N: 2
